The text below walks through data of paper PMC12141631.

Common to all, as to assay: cryo-EM structure
The target in experiment [1] is human glycine receptor β subunit, βem construct (human).
The target is the same in experiment [2]. The source holds these as a separate data set.
The target is the same in experiment [3]. This is another data set of the same source.

Like-named read-outs stand apart in the source and are kept apart here.

B1: human glycine receptor α3 subunit, α3em construct (receptor)
chain: ARSRSAPMSPSDFLDKLMGRTSGYDARIRPNFKGPPVNVTCNIFINSFGSIAETTMDYRVNIFLRQKWNDPRLAYSEYPDDSLDLDPSMLDSIWKPDLFFANEKGANFHEVTTDNKLLRIFKNGNVLYSIRLTLTLSCPMDLKNFPMDVQTCIMQLESFGYTMNDLIFEWQDEAPVQVAEGLTLPQFLLKEEKDLRYCTKHYNTGKFTCIEVRFHLERQMGYYLIQMYIPSLLIVILSWVSFWINMDAAPARVALGITTVLTMTTQSSGSRASLPKVSYVKAIDIWMAVCLLFVFSALLEYAAVNFVSRQHKELLRFRRKRKNKTEAFDMDDEVRESRFSFTAYGMGPCLQAKDGMTPKGPNHPVQVMPKSPDEMRKVFIDRAKKIDTISRACFPLAFLIFNIFYWVIYKILRHEDIHQQQD
For the molecule B1, the stoichiometry N in experiment [1] and in experiment [2] was 4 α3 per β in each case.

B2: human glycine receptor α3 subunit, α3S346Eem construct (phosphorylation mimetic) (receptor)
chain: ARSRSAPMSPSDFLDKLMGRTSGYDARIRPNFKGPPVNVTCNIFINSFGSIAETTMDYRVNIFLRQKWNDPRLAYSEYPDDSLDLDPSMLDSIWKPDLFFANEKGANFHEVTTDNKLLRIFKNGNVLYSIRLTLTLSCPMDLKNFPMDVQTCIMQLESFGYTMNDLIFEWQDEAPVQVAEGLTLPQFLLKEEKDLRYCTKHYNTGKFTCIEVRFHLERQMGYYLIQMYIPSLLIVILSWVSFWINMDAAPARVALGITTVLTMTTQSSGSRASLPKVSYVKAIDIWMAVCLLFVFSALLEYAAVNFVSRQHKELLRFRRKRKNKTEAFDMDDEVREERFSFTAYGMGPCLQAKDGMTPKGPNHPVQVMPKSPDEMRKVFIDRAKKIDTISRACFPLAFLIFNIFYWVIYKILRHEDIHQQQD
For B2, the stoichiometry N in experiment [1] and in experiment [3] was 4 α3 per β in each case.
